Assay results from the supplement of paper PMC7877785.
± gives the uncertainty stated by the source.

Test: self-splicing fitness, log relative to wild type (ln ratio); higher = more splicing; Tetrahymena group I intron in knt gene, E. coli kanamycin selection, DiMSum; sequences stand for … in CUCUCU…GGAGGGAAAAGUUAUCAGGCAUGCACCUGGUAGCUAGUCUUUAAACCAAUAGAUUGCAUCGGUUUAAAAGGCAAGACCGUCAAAUUGCGGGAAAGGGGUCAACAGCCGUUCAGUACCAAGUCUCAGGGGAAACUUUGAGAUGGCCUUGCAAAGGGUAUGGUAAUAAGCUGACGGACAUGGUCCUAACCACGCAGCCAAGUCCUAAGUCAACAGAUCUUCUGUUGAUAUGGAUGCAGUUCACAGACUAAAUGUCGGUCGGGGAAGAUGUAUUCUUCUCAUAAGAUAUAGUCGGACCUCUCCUUAAUGGGAGCUAGCGGAUGAAGUGAUGCAACACUGGAGCCGCUGGGAACUAAUUUGUAUGCGAAAGUAUAUUGAUUAGUUUUGGAGUACUCGUGGUCG
Procedure, shortened: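 Library with all eight P1ex-region intron nucleotides randomised, intron inside the knt kanamycin-resistance gene on pET-22b(+), in E. coli BL21(DE3). Cells grew overnight at 37°C or 30°C on LB agar with or without 25 μg/mL kanamycin (plus 100 μg/mL carbenicillin, 50 μM IPTG, 0.2% rhamnose), in six replicate transformations. Pooled colonies were amplicon-sequenced on Illumina HiSeq 2500. DiMSum fitness is the error-weighted combination of wild-type-normalised replicate fold changes, kanamycin versus none.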

Sequence	self-splicing fitness (ln) (30 °C)	self-splicing fitness (ln) (37 °C)
AUUCAGCAAUAUUACGCAUG	-1.3 ± 0.082	-0.553 ± 0.11
AUUCAGCAAUAUUACGCCCC	0.0239 ± 0.13	0.082 ± 0.23
AUUCAGCAAUAUUACGCCGU	-0.349 ± 0.15	0.177 ± 0.14
AUUCAGCAAUAUUACGCGAA	-1.9 ± 0.15	-1.73 ± 0.17
AUUCAGCAAUAUUACGCGUC	-1.11 ± 0.17	-0.615 ± 0.21
AUUCAGCAAUAUUACGCUCA	-0.0142 ± 0.092	-0.0382 ± 0.14
AUUCAGCAAUAUUACGGACU	0.0759 ± 0.063	0.414 ± 0.083
AUUCAGCAAUAUUACGGCAU	-0.321 ± 0.065	1.01 ± 0.1
AUUCAGCAAUAUUACGGUCU	-0.633 ± 0.073	0.126 ± 0.093
AUUCAGCAAUAUUACGGUUC	-1.64 ± 0.13	-0.855 ± 0.16
AUUCAGCAAUAUUACGUAAC	-0.841 ± 0.17	1.08 ± 0.19
AUUCAGCAAUAUUACGUAGU	-0.994 ± 0.047	-0.0257 ± 0.069
AUUCAGCAAUAUUACGUCAU	-0.863 ± 0.059	0.0811 ± 0.071
AUUCAGCAAUAUUACGUGAA	-0.88 ± 0.065	-0.398 ± 0.084
AUUCAGCAAUAUUACGUGCU	-2.95 ± 0.2	-1.81 ± 0.3
AUUCAGCAAUAUUACGUUAG	-3.78 ± 0.15	-1.52 ± 0.1
AUUGAGCAAUAUUACGAAUG	-2.9 ± 0.21	-3.15 ± 0.3
AUUGAGCAAUAUUACGACGC	-2.27 ± 0.22	-2.35 ± 0.28
AUUGAGCAAUAUUACGAGCA	-3.01 ± 0.47	-1.93 ± 0.42
AUUGAGCAAUAUUACGAGGC	-3.05 ± 0.36	-2.78 ± 0.4
AUUGAGCAAUAUUACGAUAC	-3.01 ± 0.42	-1.65 ± 0.34
AUUGAGCAAUAUUACGAUUC	-2.51 ± 0.22	-2.86 ± 0.47
AUUGAGCAAUAUUACGCAAA	-3.02 ± 0.29	–
AUUGAGCAAUAUUACGCCCG	-3.02 ± 0.47	–
AUUGAGCAAUAUUACGCCGG	-2.87 ± 0.33	-2.53 ± 0.48

Sequence	self-splicing fitness (ln) (30 °C)	self-splicing fitness (ln) (37 °C)
AUUGAGCAAUAUUACGCUCC	-1.83 ± 0.44	–
AUUGAGCAAUAUUACGGACU	-2.64 ± 0.21	-0.639 ± 0.14
AUUGAGCAAUAUUACGGAUC	-4.03 ± 0.47	-2.65 ± 0.38
AUUGAGCAAUAUUACGGCCC	–	0.679 ± 0.5
AUUGAGCAAUAUUACGGCGC	-0.865 ± 0.23	-0.384 ± 0.17
AUUGAGCAAUAUUACGGCUU	-2.62 ± 0.21	-0.8 ± 0.17
AUUGAGCAAUAUUACGUAUC	-1.48 ± 0.36	–
AUUGAGCAAUAUUACGUAUU	-4.59 ± 0.38	-1.25 ± 0.16
AUUGAGCAAUAUUACGUCAC	-3.9 ± 0.34	-2.34 ± 0.39
AUUGAGCAAUAUUACGUCCG	-2.58 ± 0.16	-2.91 ± 0.48
AUUGAGCAAUAUUACGUCGC	–	-1.8 ± 0.46
AUUGAGCAAUAUUACGUCGU	-1.59 ± 0.15	-1.69 ± 0.17
AUUGAGCAAUAUUACGUCUA	-2.12 ± 0.17	-1.77 ± 0.21
AUUGAGCAAUAUUACGUGAU	-1.58 ± 0.14	-2.17 ± 0.22
AUUGAGCAAUAUUACGUGGG	–	-1.57 ± 0.19
AUUGAGCAAUAUUACGUUGC	-2.94 ± 0.33	-1.64 ± 0.18
AUUUAGCAAUAUUACGAAAC	-2.83 ± 0.22	-2 ± 0.27
AUUUAGCAAUAUUACGAAAG	-2.86 ± 0.25	-0.748 ± 0.17
AUUUAGCAAUAUUACGACAG	-2.19 ± 0.24	0.257 ± 0.26
AUUUAGCAAUAUUACGACUU	-0.092 ± 0.059	0.239 ± 0.067
AUUUAGCAAUAUUACGAGUA	-2.95 ± 0.27	-0.93 ± 0.18
AUUUAGCAAUAUUACGAUCA	-1.08 ± 0.19	0.104 ± 0.16
AUUUAGCAAUAUUACGCACA	-0.136 ± 0.093	-0.202 ± 0.095
AUUUAGCAAUAUUACGCCGC	-1.8 ± 0.41	-1.82 ± 0.48
AUUUAGCAAUAUUACGCCUG	-1.23 ± 0.12	-0.529 ± 0.12

Sequence	self-splicing fitness (ln) (30 °C)	self-splicing fitness (ln) (37 °C)
AUUUAGCAAUAUUACGGAAA	-2.75 ± 0.29	-1.47 ± 0.21
AUUUAGCAAUAUUACGGAGC	-3.49 ± 0.45	–
AUUUAGCAAUAUUACGGGUA	-2.72 ± 0.3	-1.17 ± 0.17
AUUUAGCAAUAUUACGUCAA	-3.4 ± 0.29	-2.14 ± 0.34
AUUUAGCAAUAUUACGUCAU	-1.76 ± 0.1	-0.485 ± 0.1
AUUUAGCAAUAUUACGUGCC	-0.606 ± 0.15	0.118 ± 0.14
AUUUAGCAAUAUUACGUGGG	-3.33 ± 0.3	-2.44 ± 0.3
AUUUAGCAAUAUUACGUGGU	-2.91 ± 0.18	-2.45 ± 0.29
CAAAAGCAAUAUUACGAAAA	-2.35 ± 0.18	-2.11 ± 0.2
CAAAAGCAAUAUUACGAACC	-1.63 ± 0.31	-1.45 ± 0.28
CAAAAGCAAUAUUACGACAA	-1.85 ± 0.13	-1.64 ± 0.15
CAAAAGCAAUAUUACGACCC	-1.54 ± 0.15	-1.72 ± 0.32
CAAAAGCAAUAUUACGAGGA	-3.08 ± 0.19	-2.14 ± 0.15
CAAAAGCAAUAUUACGAUAU	-4.43 ± 0.25	-2.23 ± 0.18
CAAAAGCAAUAUUACGAUGA	-0.319 ± 0.074	-0.167 ± 0.075
CAAAAGCAAUAUUACGAUUC	-2.41 ± 0.11	-0.98 ± 0.089
CAAAAGCAAUAUUACGCCGC	–	-1.32 ± 0.48
CAAAAGCAAUAUUACGCCUG	-1.07 ± 0.13	-0.273 ± 0.13
CAAAAGCAAUAUUACGCGUG	-3.22 ± 0.11	-2.11 ± 0.14
CAAAAGCAAUAUUACGCUCA	-1.64 ± 0.11	-0.465 ± 0.13
CAAAAGCAAUAUUACGCUGA	-3.25 ± 0.2	-1.81 ± 0.15
CAAAAGCAAUAUUACGGAUU	-3.49 ± 0.1	-2.87 ± 0.1
CAAAAGCAAUAUUACGGCGC	-2.33 ± 0.13	-1.5 ± 0.18
CAAAAGCAAUAUUACGGCUG	-1.3 ± 0.088	-0.592 ± 0.11
CAAAAGCAAUAUUACGGGAU	-3.95 ± 0.19	-3.04 ± 0.22

Sequence	self-splicing fitness (ln) (30 °C)	self-splicing fitness (ln) (37 °C)
CAAAAGCAAUAUUACGGGCC	-3.65 ± 0.27	-2.28 ± 0.28
CAAAAGCAAUAUUACGGGCG	-0.0633 ± 0.084	0.608 ± 0.11
CAAAAGCAAUAUUACGGGGC	-3.66 ± 0.26	-3.02 ± 0.23
CAAAAGCAAUAUUACGGGUU	-3.28 ± 0.14	-2.46 ± 0.16
CAAAAGCAAUAUUACGGUAG	-0.372 ± 0.058	-0.148 ± 0.074
CAAAAGCAAUAUUACGGUGG	-1.13 ± 0.052	-0.335 ± 0.073
CAAAAGCAAUAUUACGUAAG	-0.419 ± 0.047	0.0644 ± 0.059
CAAAAGCAAUAUUACGUCAU	-2.71 ± 0.17	-2.48 ± 0.22
CAAAAGCAAUAUUACGUGAA	-2.73 ± 0.085	-1.63 ± 0.099
CAAAAGCAAUAUUACGUGCU	-4.33 ± 0.2	-2.27 ± 0.15
CAAAAGCAAUAUUACGUGGU	-3.65 ± 0.11	-2.49 ± 0.11
CAAAAGCAAUAUUACGUUAU	-3.96 ± 0.13	-2.5 ± 0.12
CAAAAGCAAUAUUACGUUUA	-2.19 ± 0.13	-1.3 ± 0.13
CAACAGCAAUAUUACGAAAA	-2.73 ± 0.3	-1.38 ± 0.26
CAACAGCAAUAUUACGAACG	0.0149 ± 0.065	0.73 ± 0.084
CAACAGCAAUAUUACGAGAG	-3.41 ± 0.13	-1.91 ± 0.11
CAACAGCAAUAUUACGAGCU	-3.61 ± 0.18	-2.44 ± 0.17
CAACAGCAAUAUUACGCACC	-3.36 ± 0.34	-0.879 ± 0.3
CAACAGCAAUAUUACGCCUG	-1.23 ± 0.088	-0.914 ± 0.11
CAACAGCAAUAUUACGCGAA	-2.16 ± 0.16	-1.61 ± 0.14
CAACAGCAAUAUUACGCGAC	-3.56 ± 0.12	-1.5 ± 0.12
CAACAGCAAUAUUACGCGCA	-0.857 ± 0.085	0.0215 ± 0.087
CAACAGCAAUAUUACGCGCG	-0.385 ± 0.059	-0.492 ± 0.082
